Measured values: paper PMC6544321, “Structural insights into histone chaperone Chz1-mediated H2A.Z recognition and histone replacement” (PLoS Biology, 2019)
Substitutions are numbered along the chain they refer to. In names and notes the source's numbering stands.

B1: middle and C-terminal region of Chz1 (Chz1 64-153) (domain or fragment, S. cerevisiae (budding yeast), UniProt P40019 64-153, looked up)
chain: TVEDSESDMDDAKLDALMGNEGEEEEDDLAEIDTSNIITSGRRTRGKVIDYKKTAEELDKKEPSTGSKDDVGYGEKEEDDEDEEDDDFKE
notes: Chz1, budding yeast, residues 64-153; only residues 142-153 are seen in the crystal structure; also called Chz1-MC; Chz1-MC WT; source: E. coli BL21-CodonPLUS(DE3)-RIPL, purified (Ni-NTA, HiTrap Q)
B2: single chain H2A-H2B with H2A N91G (other)
chain: MRKETYSSYIYKVLKQTHPDTGISQKSMSILNSFVNDIFERIATEASKLAAYNKKSTISAREIQTAVRLILPGELAKHAVSEGTRAVTKYSSSTQAQSRSAKAGLTFPVGRVHRLLRRGNYAQRIGSGAPVYLTAVLEYLAAEILELAGNAARDNKKTRIIPRHLQLAIRGDDELNKLLGNVTIAQGGVLPNI
B3: single chain H2A-H2B with H2A NKLGNV→DSIRA (other)
chain: RKETYSSYIYKVLKQTHPDTGISQKSMSILNSFVNDIFERIATEASKLAAYNKKSTISAREIQTAVRLILPGELAKHAVSEGTRAVTKYSSSTQAQSRSAKAGLTFPVGRVHRLLRRGNYAQRIGSGAPVYLTAVLEYLAAEILELAGNAARDNKKTRIIPRHLQLAIRNDDELDSLIRATIAQGGVLPNI
B4: single chain H2A-H2B with H2A P50A (other)
chain: RKETYSSYIYKVLKQTHPDTGISQKSMSILNSFVNDIFERIATEASKLAAYNKKSTISAREIQTAVRLILPGELAKHAVSEGTRAVTKYSSSTQAQSRSAKAGLTFPVGRVHRLLRRGNYAQRIGSGAAVYLTAVLEYLAAEILELAGNAARDNKKTRIIPRHLQLAIRNDDELNKLLGNVTIAQGGVLPNI
B5: yeast single chain H2A-H2B (other)
chain: B4 chain with A129P
modifications: Limits and order (H2B then H2A) are taken by homology from scZB in 2JSS/6AE8. The paper's H2B numbers are mature (+1 on precursor) and its H2A numbers are precursor. H2A.1 paralogue assumed.
B6: middle region of Chz1 (Chz1 64-124) (domain or fragment, S. cerevisiae (budding yeast), UniProt P40019 64-124, looked up)
chain: TVEDSESDMDDAKLDALMGNEGEEEEDDLAEIDTSNIITSGRRTRGKVIDYKKTAEELDKK
notes: Chz1, budding yeast, residues 64-124; also called Chz1-M; source: E. coli BL21-CodonPLUS(DE3)-RIPL, purified (Ni-NTA, HiTrap Q)

Experiments:
Settings in all cases: both partners purified
[1] = target: B2; experiment: ITC; MicroCal VP-ITC, 25°C, 20 mM MES (pH 6.0), 0.5 M NaCl; chaperone (50 or 150 μM) injected into histones (5 μM scZB or 15 μM scAB and mutants) in the cell; one-site fit
[2] = target: B3; experiment: as above
[3] = target: B4; experiment: as above
[4] = target: B5; experiment: as above
[5] = target: B1; experiment: as above
[6] = target: B6; experiment: as above
[7] = target: T1, Swc2-Z, the 1–136 segment of the Swc2 subunit of the SWR1 complex (yeast); experiment: ITC; 0.2 M NaCl (Table 1); Swc2-Z or Chz1-M injected into single-chain histone dimers; otherwise as the ITC methods (25°C, 20 mM MES pH 6.0)
T1 construct: SWR complex protein 2 (Swc2), subunit of the yeast SWR1 complex, residues 1-136

[8] = target: B6; experiment: as above
[9] = target: B5; experiment: as above

With B1 as the binder, how does the “stoichiometry N” value [1] read?
Its value is 1 sites.

And the “stoichiometry N” value [2]?
Its value is 0.9 sites.

What about the “stoichiometry N” value [3] of the same binder?
Its value is 1 sites.

And the “stoichiometry N” value [4]?
Its value is 0.9 sites.

How did the Kd [5] turn out when B2 was run?
The Kd was 420 ± 20 nM.

Which Kd [5] does the source give for B3 here?
The Kd was 5080 ± 180 nM.

With B4 as the binder, how does the Kd [5] read?
Its Kd is 530 ± 40 nM.

With B5 as the binder, how does the Kd [5] read?
The Kd was 5020 ± 420 nM.

And the Kd [6]?
The Kd was 7870 ± 350 nM.

What about the Kd [7] of the same binder?
Its Kd is 200 ± 70 nM.

And the Kd [8]?
Its Kd is 300 ± 2 nM.

How did the “stoichiometry N” value [4] turn out when B6 was run?
Its value is 0.7 sites.

What about the “stoichiometry N” value [9] of the same binder?
Its value is 1 sites.
